Test results taken from the DeepSol protein solubility set.

Experiment: soluble on expression in E. coli; label from the status in PepcDB or PDB records

Sequence | soluble on expression in E. coli
MSLYIKVLSVSELNNYIKRVVDSDYILSNAQVKGEISNFKFHSSGHVYFSLKDEGGKINCIMFRSNAEKLKFIPENGMKVNVKGRVSVYVKDGAYQLYCTEITPEGRGELYEAFEKLKEKLLNEGMFSEEHKRNIPKYPKMIGVITSPTGAAIRDIINVATRRNKSVDMIICPTLVQGVNAPGELIKALDYLNNREDIDTIILARGGGSIEELWAFNDEKLAYAVYNSKKPVVTGVGHETDFTIVDFVSDRRAPTPSAAAEIAVPNINEEMNSFVSLKRALDTSIKTYIQNKCNQLEIAKRMLEKNSPEILIVNGYSSIDNFKYVLDMRIANKIKIEKEKILRYNSILKSNSPINILNKGYSIISDEIGNNISNVDKLKEPDKVHITFKDGKVNAKIDILREGHHHHHH | soluble
MTQAEIKLCSLLLQEHFGEIVEKIGVHLIRTGSQPLRVIAHDTGTSLDQVKKALCVLVQHNLVSYQVHKRGVVEYEAQCSRVLRMLRYPRYIYTTKTLYSDTGELIVEELLLNGKLTMSAVVKKVADRLTETMEDGKTMDYAEVSNTFVRLADTHFVQRCPSVPTTENSDPGPPPPAPTLVINEKDMYLVPKLSLIGKGKRRRSSDEDAAGEPKAKRPKYTTDNKEPIPDDGIYWQANLDRFHQHFRDQAIVSAVANRMDQTSSEIVRTMLRMSEITTSSSAPFTQPLSSNEIFRSLPVGYNISKQVLDQYLTLLADDPLEFVGKSGDSGGGMYVINLHKALASLATATLKSVVQERFGSRCARIFRLVLQKKHIEQKQVEDFAMIPAKEAKDMLYKMLSENFMSLQVGCQ | not soluble
MADKSADIQTPAPAANTSISATQQPAIQQPNVSGTVWIRQKVALPPDAVLTVTLSDASLADAPSKVLAQKAVRTEGKQSPFSFVLSFNPADVQPNARILLSAAITVNDKLVFITDTVQPVINQGGTKADLTLVPVQQTAVPVQASGGATTTVPSTSPTQVNPSSAVPAPTQYLEHHHHHH | soluble
MSLKPLHYTASALALGLALMGNAQAVTTIPFWHSMEGELGKEVDSLAQRFNAENPDYKIVPTYKGNYEQNLSAGIAAFRTGNAPAILQVYEVGTATMMASKAIKPVYDVFKEAGIQFDESQFVPTVSGYYSDSKTGHLLSQPFNSSTPVLYYNKDAFKKAGLDPEQPPKTWQDLADYAAKLKASGMKCGYASGWQGWIQLENFSAWNGLPFASKNNGFDGTDAVLEFNKPEQVKHIAMLEEMNKKGDFSYVGRKDESTEKFYNGDCAMTTASSGSLANIREYAKFNYGVGMMPYDADAKDAPQNAIIGGASLWVMQGKDKETYTGVAKFLDFLAKPENAAEWHQKTGYLPITKAAYDLTREQGFYEKNPGADTATRQMLNKPPLPFTKGLRLGNMPQIRVIVDEELESVWTGKKTPQQALDTAVERGNQLLRRFEKSTKSEGGSHHHHHH | soluble
MGSDKIHHHHHHMKTLVICSGGLDSVSLAHKVAAEHDLIGLISFDYGQRHRKELDFAARAATRLGVPHDLIDMRQIGAHLSGSALTDDVDVPDGHYAEDTMKITVVPNRNAIMLAIAFGIAAAKQADAVATAVHGGDHFIYPDCRPGFTQAFEAMQAQALDGYASVRLYTPFVHEPKSAIVTEGERHNTPFADTWSCYKGGEVHCGRCGTCVERREAFHLAGVADPTPYADPEFWRAAVEGR | not soluble
MKIGIVGLGRVGSSTAFALLMKGFAREMVLIDVDKKRAEGDALDLIHGTPFTRRANIYAGDYADLKGSDVVIVAAGVPQKPGETRLQLLGRNARVMKEIARNVSKYAPDSIVIVVTNPVDVLTYFFLKESGMDPRKVFGSGTVLDTARLRTLIAQHCGFSPRSVHVYVIGEHGDSEVPVWSGAMIGGIPLQNMCQVCQKCDSKILENFAEKTKRAAYEIIERKGATHYAIALAVADIVESIFFDEKRVLTLSVYLEDYLGVKDLCISVPVTLGKHGVERILELNLNEEELEAFRKSASILKNAINEITAEENKHQNTSG | soluble
MIEFDNLTYLHGKPQGTGLLKANPEDFVVVEDLGFEPDGEGEHILVRILKNGCNTRFVADALAKFLKIHSREVSFAGQKDKHAVTEQWLCARVPGKEMPDLSAFQLEGCQVLEYARHKRKLRLGALKGNAFTLVLREVSNRDDVEQRLIDICVKGVPNYFGAQRFGIGGSNLQGALRWAQTNTPVRDRNKRSFWLSAARSALFNQIVAERLKKADVNQVVDGDALQLAGRGSWFVATTEELAELQRRVNDKELMITAALPGSGEWGTQREALAFEQAAVAAETELQALLVREKVEAARRAMLLYPQQLSWNWWDDVTVEIRFWLPAGSFATSVVRELINTTGDYAHIAELEHHHHHH | soluble
MSLSIPFDDSRGPYVLAMDIGSTASRGGLYDASGCPIKGTKQRESHEFTTGEGVSTIDADQVVSEITSVINGILNAADHHNIKDQIAAVALDSFASSLILVDGEGNALTPCITYADSRSAQYVEQLRAEIDEEAYHGRTGVCLHTSYHPSRLLWLKTEFEEEFNKAKYVMTIGEYVYFKLAGITGMATSIAAWSGILDAHTGELDLTILEHIGVDPALFGEIRNPDEPATDAKVVDKKWKHLEEIPWFHAIPDGWPSNIGPGAVDSKTVAVAAATSGAMRVILPSVPEQIPSGLWCYRVSRDQCIVGGALNDVGRAVTWLERTIIKPENLDEVLIREPLEGTPAVLPFFSGERSIGWAASAQATITNIQEQTGPEHLWRGVFEALALSYQRVWEHMGKAGAAPERVIASGRVSTDHPEFLAMLSDALDTPVIPLEMKRATLRGTALIVLEQLEPGGTRATPPFGTTHQPRFAHHYSKARELFDALYLKLVEGHHHHHH | soluble
MPRTDLPFDELIIREYLLDNPDFFNRYPELLLAMRLPHLERGAISLVERRQELLRQRVNQLEEEITSLLTMAARNEKIFLFNTELSFKLLNCVNLESLKEVLADNLKAQFNFTHVRLISVLEADVEMKAIWAERLRKEYYFGRLTQQEAKRLFGSEVGSVALVKLADDIPVIFAVASHDATHFHPDMDNMLLEQIRRLLAHMLAKLAAALEHHHHHH | not soluble
GAKQVDVHDPVMTREGDTWYLFSTGPGITIYSSKDRVNWRYSDRAFATEPTWAKRVSPSFDGHLWAPDIYQHKGLFYLYYSVSAFGKNTSAIGVTVNKTLNPASPDYRWEDKGIVIESVPQRDLWNAIAPAIIADDHGQVWMSFGSFWGGLKLFKLNDDLTRPAEPQEWHSIAKLERSVLMDDSQAGSAQIEAPFILRKGDYYYLFASWGLCCRKGDSTYHLVVGRSKQVTGPYLDKTGRDMNQGGGSLLIKGNKRWVGLGHNSAYTWDGKDYLVLHAYEAADNYLQKLKILNLHWDGEGWPQVDEKELDSYISQRLK | soluble
MGSDKIHHHHHHMKSYKNYIFDFYGTLVDIRTDENKLEVWNQLTQIYNAFGCSYRPRQLKNAYHRFVEEAERFLAETVSYQYVEIDLETLFIRLLTDAPNENQSTNKPTDLETFGQVVATIFRVLSREKLEAYENTLTSLQTLAARAARLFILSNAQRIFTQAEIEQTGCADLMEKIYISSDFKMKKPEPAFLQLVLEENNLDVKETVMVGNDLTSDIAIAHELGMDSILLNTFPYSQEEIDSYRRLGWNFEVVGDIAELL | not soluble
KQKVINVKEVRLSPTIEEHDFNTKLRNARKFLEKGDKVKATIRFKGRAITHKEIGQRVLDRLSEACADIAVVETAPKMDGRNMFLVLAPKNDNK | soluble
MIKMGRSEMKIASAELRELMKAVSEGHYETVNTILDKDPELVNQYAPPTYDSPLARVLNKKHIDYKMLDILVKHHVDFDYPINYHKETPIELACKNQDLQLFKYLVQHNAPISEQAPHFLLVNSTNIKYLTEDKIKNTCEIIKLMGGLEAVSSKCDAEGNRFGEQARKSQLINRFGGIVKYDYMQLLQSVYPIVDREVDAPTIHGSTEVLTNLLNKIRGQFSSKETYDQQNLKDSISLFFMTGGEIPPSRKVPESRFEEAGIDTPKNAL | not soluble
MGSDKIHHHHHHMPFENAPHLVFWEVTKACPLSCKHCRANAIDKPLPGELSTEESKKLLEDIARFGKVVIVFTGGDPLSRSDIFEIMEYAKSLGLIVSIAPSPSYRLRDETMKMISNYARYMSISIDGATSQTHDWLRGLGSYNYALRGIELGLKYGIQVQVNTLVWKKSYSELPFLVKLLKELGVKVWEVFFLIPVGRGVIELDIPKEKYKDVIDFLVETTRYDLVVRTVEAPFFRRAKLEYTPSTIKSNELVSKLRELLGEPVKDVDKSVLPTRDGSGVIFIGYNGDVYPSGFLPLYLGNVRKESIVDIYRKSEVLKIIKDGRFDGKCGVCKFNNICGGSRARAFAVYNNPFAEDPMCPY | not soluble
